The values below come from the supplement of paper PMC7125110.

B1: glmS ribozyme (parent)
chain: AUAAAAGCGCCAGAACUACAGAAAUGUAGUUGACGAGGAGGAGGUUUAUCGAAUUUUCGGCGGAUGCCUCCAAA

What all share (settings): with glucosamine-6-phosphate
The variants in series [1] derive from B1. The series is described as follows: self-cleavage kobs at 40 uM GlcN6P; higher = faster cleavage; RNA array. Summed up:
(§1)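 Glucosamine-6-phosphate (40 μM to 10 mM) in HEPES/KCl/Mg(OAc)2 buffer was flowed over sequenced MiSeq chips, and tiles were imaged over ~14 h. Barcoded ribozyme variants there had been transcribed in situ by E. coli RNA polymerase and were tracked through a hybridised Cy3 probe at 37 °C. One- or two-exponential decay fits to per-tile medians, normalised to baseline and to non-cleaving reference variants, gave kobs. kcat and KM came from weighted Michaelis–Menten fits across concentrations.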

Variants of B1 are the subject of series [2]. The series is described as follows: self-cleavage kobs at 640 uM GlcN6P; higher = faster cleavage; RNA array. In a few lines:
as §1

Variants of B1 are the subject of series [3]. The series is described as follows: self-cleavage kobs at 10000 uM GlcN6P; higher = faster cleavage; RNA array. In a few lines:
as §1

The variants in series [4] derive from B1. The series is described as follows: self-cleavage kobs at 2500 uM GlcN6P; higher = faster cleavage; RNA array. In a few lines:
as §1

Series [5] covers variants of B1. The series is described as follows: self-cleavage kobs at 160 uM GlcN6P; higher = faster cleavage; RNA array. Summed up: as §1

± gives the standard error. Variants at the floor of the assay were thinned out.

As for AUAAAAGUGCCAGAACUACAGAAAUGUAGUUGACGAGGAGGAGGUUUGUCGAAUUUUCGGCGGAUGCCUUCAAA [C8U A48G C70U], the “self-cleavage kobs at 40 uM GlcN6P” value in series [1] is less than 1e-05 s⁻¹. Further, the “self-cleavage kobs at 640 uM GlcN6P” value in series [2] was less than 1e-05 s⁻¹. Also, in series [3], the “self-cleavage kobs at 10000 uM GlcN6P” value is less than 1e-05 s⁻¹.
As for AUAAAAGCGCCAAAUCUACAGAAAUGUAGUUGACGACGAGGAGGUUUAUCGAAUUUUCGGCGGAUGCCUCCAAA [G13A A15U G37C], the “self-cleavage kobs at 40 uM GlcN6P” value in series [1] was less than 1e-05 s⁻¹.
For AUAAAAGCGCCAGGAUUACAGAAAUGUAGUUGACGAAGAGGAGGUUUAUCGAAUUUUCGGCGGAUGGCUGCAAA [A14G C16U G37A C67G C70G], the “self-cleavage kobs at 40 uM GlcN6P” value in series [1] is less than 1e-05 s⁻¹. Also, in series [4], the “self-cleavage kobs at 2500 uM GlcN6P” value is less than 1e-05 s⁻¹.
With AUAAAAGCGCCAGAACUACAGAAAUGUAGUUGACGAGGAGGAAGUUGAUCGAAAUUUCGGCGGAUGCCUCCAAA [G43A U47G U54A], in series [1], the “self-cleavage kobs at 40 uM GlcN6P” value was less than 1e-05 s⁻¹.
In the case of AUAAAAGCGCCAGAACUACAGAAAUGUAGUUGACCAGGAGGAGGUUUAUCGCAUUUUCGGCGGAUGCCUCCAAA [G35C A52C], the “self-cleavage kobs at 40 uM GlcN6P” value in series [1] is less than 1e-05 s⁻¹. For the same variant, the “self-cleavage kobs at 160 uM GlcN6P” value in series [5] was less than 1e-05 s⁻¹. The “self-cleavage kobs at 640 uM GlcN6P” value in series [2] is less than 1e-05 s⁻¹. In series [4], the “self-cleavage kobs at 2500 uM GlcN6P” value was less than 1e-05 s⁻¹. In addition, the “self-cleavage kobs at 10000 uM GlcN6P” value in series [3] is less than 1e-05 s⁻¹.
With AUAAAAGCGCUUUAACUACAGAAAUGUAGUUGACGAGGAGGAGGUUUAUCGAAUUUUCGGCGGCUGCCUCCAAA [C11U A12U G13U A64C], the “self-cleavage kobs at 40 uM GlcN6P” value in series [1] was less than 1e-05 s⁻¹. Further, the “self-cleavage kobs at 10000 uM GlcN6P” value in series [3] is less than 1e-05 s⁻¹.
Take AUAAAAGCGCCAGAACUACAGAAAUGUAGUUGAAGAGGAGGAGGUUUAUCGAACUUUCGGCGGAUGCCUCCAAA [C34A U54C]: in series [1], the “self-cleavage kobs at 40 uM GlcN6P” value was less than 1e-05 s⁻¹. Moreover, the “self-cleavage kobs at 160 uM GlcN6P” value in series [5] is less than 1e-05 s⁻¹. Also, in series [2], the “self-cleavage kobs at 640 uM GlcN6P” value is less than 1e-05 s⁻¹. The “self-cleavage kobs at 10000 uM GlcN6P” value in series [3] was less than 1e-05 s⁻¹.
For the variant AUAAAAGCGCGAGAACUACAGAAAUGUAGUUGACGACGAGGAGGUUUAUCGAAUUUUCGGCGGAUGCCUCCAAA [C11G G37C], the “self-cleavage kobs at 40 uM GlcN6P” value in series [1] was less than 1e-05 s⁻¹. Besides, the “self-cleavage kobs at 10000 uM GlcN6P” value in series [3] was less than 1e-05 s⁻¹.
Turning to AUAAAAGCGCCUGAACUACAGAAAUGUAGUUGACGAGGAGGAGGUUUAUCCAAUUUUCGGCGGAUGCCUCCAAA [A12U G51C], the “self-cleavage kobs at 40 uM GlcN6P” value in series [1] was less than 1e-05 s⁻¹. Further, the “self-cleavage kobs at 160 uM GlcN6P” value in series [5] is less than 1e-05 s⁻¹. The “self-cleavage kobs at 640 uM GlcN6P” value in series [2] was less than 1e-05 s⁻¹. Besides, the “self-cleavage kobs at 2500 uM GlcN6P” value in series [4] was less than 1e-05 s⁻¹.
For AUAAAAGCGCCAGAACUACAGAAAUGUAGUUGACGAGGAGGAGGUUUAUGGAAUUUUCGGCGGGUGCCUCAAAA [C50G A64G C71A], the “self-cleavage kobs at 40 uM GlcN6P” value in series [1] stood at 8.51e-05 ± 2.3e-05 s⁻¹. The “self-cleavage kobs at 10000 uM GlcN6P” value in series [3] was determined as 9.96e-05 ± 2.1e-05 s⁻¹.
On to AUAAACCCGCCAGAACUACAGAAAUGUAGUUGACGAGGCGCAGGUUUAUCGAAUUUUCGGUGGAUGCCUCCAAA [A6C G7C A39C G41C C61U], for which the “self-cleavage kobs at 40 uM GlcN6P” value in series [1] is less than 1e-05 s⁻¹.
Same read-out and setting: the value for AUAAAACCGCCAGAACUACAGAAAUGUAGUUGACGAGGAGGCGGUUUAUCGAAUUUUCGGUGGAUGCCUCCAAA [G7C A42C C61U] was less than 1e-05 s⁻¹.
Regarding AUAAAAGCGCCAGAGCUACAGAAAUGUAGUUGACGAGGAGGAGGUUUAUCGAAUUUUCGGCGGAUGCCUUCAAA [A15G C70U], the “self-cleavage kobs at 40 uM GlcN6P” value in series [1] was found to be 0.00115 ± 0.00011 s⁻¹. Further, the “self-cleavage kobs at 160 uM GlcN6P” value in series [5] was 0.00217 ± 0.00032 s⁻¹. In series [2], the “self-cleavage kobs at 640 uM GlcN6P” value was 0.0045 ± 0.00057 s⁻¹. Also, in series [4], the “self-cleavage kobs at 2500 uM GlcN6P” value stood at 0.0168 ± 0.0062 s⁻¹. The “self-cleavage kobs at 10000 uM GlcN6P” value in series [3] turned out to be 0.0598 ± 0.012 s⁻¹.
Consider AUAAAAGCGCCAGAACUACAGAAAUGUAGUUGACAGGGAGGAGGUUUAUCGAAUUUUCGGCGGAUGCCUCCAAA [G35A A36G], for which the “self-cleavage kobs at 40 uM GlcN6P” value in series [1] is less than 1e-05 s⁻¹. Further, in series [5], the “self-cleavage kobs at 160 uM GlcN6P” value is less than 1e-05 s⁻¹. Moreover, the “self-cleavage kobs at 640 uM GlcN6P” value in series [2] was less than 1e-05 s⁻¹. In series [4], the “self-cleavage kobs at 2500 uM GlcN6P” value is less than 1e-05 s⁻¹.
